Data reported in publication PMC12711160 (Chemmedchem, 2025).
Entries after “also recorded” stand apart in the source; their conditions may differ. Values belong to the molecule of their own block, whether it stands above or below them.

Experiments:
[1] = human blood plasma/DPBS (Biowest; 1:1, v/v); details: 37 °C, up to 72 h
[2] = target: human neuropeptide Y (NPY) receptor type 1 (hY1R), in stably transfected COS-7 cells (human) (UniProt P25929)
[3] = target: human neuropeptide Y receptor type 4 (hY4R), in stably transfected COS-7 cells (human) (UniProt P50391)
human neuropeptide Y receptor type 4 (hY4R), in stably transfected COS-7 cells (human), sequence (P50391 whole entry): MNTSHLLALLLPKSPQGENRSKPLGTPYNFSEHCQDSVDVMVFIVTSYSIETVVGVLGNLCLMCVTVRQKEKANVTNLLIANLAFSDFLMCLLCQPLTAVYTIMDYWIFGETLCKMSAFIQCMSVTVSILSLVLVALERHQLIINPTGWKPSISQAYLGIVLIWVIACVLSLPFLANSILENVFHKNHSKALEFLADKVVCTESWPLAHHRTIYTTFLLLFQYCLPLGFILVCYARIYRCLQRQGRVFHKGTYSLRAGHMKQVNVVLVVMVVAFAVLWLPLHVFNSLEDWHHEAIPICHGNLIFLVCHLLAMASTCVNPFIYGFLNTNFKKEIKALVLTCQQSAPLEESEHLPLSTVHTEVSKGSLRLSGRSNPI

ERα [4] = test: Luciferase reporter gene assay, HEK293 cells expressing hY1R-eYFP, ERα-pEGFP and 3xERE-TATA-luciferase; type: cell-based; details: ERα and ERE-luciferase, stimulation 24 h, normalized to 4-OHT, at least three independent experiments, n. d. = could not be determined
Source text: B) ERα‐pEGFP and TATA‐luciferase.
Therefore, we tested HEK293 cells that transiently express hY1R, ERα, and an ERα activity‐dependent luciferase. ERα forms dimers and translocates into the nucleus upon activation, where it binds to the estrogen response element (ERE) upstream of the luciferase gene and induces luciferase expression.

ERα [5] = test: Luciferase reporter gene assay, control HEK293 cells expressing only ERα-pEGFP and TATA-luciferase (w/o hY1R); details: read-out: EC50 luciferase reporter gene assay, w/o hY1R; HEK293 cells expressing ERα and ERE-luciferase but not hY1R; stimulation 24 h; normalized to 4-OHT; n. d. = could not be determined
Protocol: Values were normalized to the native ligands (NPY for hY1R and hY2R, hPP for hY4R). Data points represent mean ± SEM from n ≥ 2 independent experiments with technical triplicates. Luciferase reporter gene assay in transiently transfected HEK293‐cells expressing hY1R‐eYFP. […] Data points represent mean ± SEM from n ≥ 3 independent experiments with technical triplicates. Calculated pEC50‐ and Emax‐values are shown as bar graphs.
HEK293‐cells were transiently transfected with 0.083 µg/well hY1R‐eYFP‐pVitro2, pEGFP‐c1‐ERα (kindly provided by Michael Mancini (Addgene plasmid #28230; http://n2t.net/addgene:28230; RRID:Addgene_28230))^[ [58] ^] and 3xERE‐Tata‐Luc (kindly provided by Donald McDonnell (Addgene plasmid #11354; http://n2t.net/addgene:11354; RRID:Addgene_11354))^[ [59] ^] parallel to cell seeding. For a control experiment without hY1R‐expression, pEGFP‐N1 together with pEGFP‐c1‐ERα and 3xERETata‐Luc was transfected instead. Lipofectamine2000 (Invitrogen) was used as a transfection reagent according to the manufacturer's protocol. […] Luciferase activity was detected with ONE Glo Luciferase Assay System (Promega) following the manufacturer's specifications. Each concentration was measured at least in technical triplicates and relative luminescence units (RLU) were obtained by normalization to free 4‐OH‐Tmx. Concentration response curves were calculated with Graph Pad Prism 9.

[6] = target: human neuropeptide Y (NPY) receptor type 1 (hY1R), in stably transfected COS-7 cells (human) (UniProt P25929); remark: listed apart in the source
[7] = target: human neuropeptide Y receptor type 4 (hY4R), in stably transfected COS-7 cells (human) (UniProt P50391); remark: listed apart in the source
[8] = DMEM/Ham‘s w/o FBS, pH = 7.04
[9] = DMEM/Ham‘s with 15% FBS, pH = 8.01
[10] = luciferase reporter gene assay medium (DMEM/Ham‘s w/o phenolred, w/o FBS, pH = 7.41)
[11] = target: human neuropeptide Y receptor type 5 (hY5R), in stably transfected COS-7 cells (human) (UniProt Q15761)
human neuropeptide Y receptor type 5 (hY5R), in stably transfected COS-7 cells (human), sequence (Q15761 whole entry): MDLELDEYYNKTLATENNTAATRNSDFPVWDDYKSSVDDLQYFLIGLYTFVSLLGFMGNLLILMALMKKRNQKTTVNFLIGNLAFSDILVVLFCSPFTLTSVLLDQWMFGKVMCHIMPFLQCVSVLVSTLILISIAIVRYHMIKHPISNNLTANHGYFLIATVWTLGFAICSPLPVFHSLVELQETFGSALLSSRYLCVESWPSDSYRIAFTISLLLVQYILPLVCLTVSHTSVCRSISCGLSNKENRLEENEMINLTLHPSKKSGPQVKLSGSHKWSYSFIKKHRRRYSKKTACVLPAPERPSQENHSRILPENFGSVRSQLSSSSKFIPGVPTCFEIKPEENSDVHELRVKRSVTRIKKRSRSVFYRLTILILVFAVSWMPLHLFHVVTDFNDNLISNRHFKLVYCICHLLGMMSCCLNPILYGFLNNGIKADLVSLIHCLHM

[12] = target: human neuropeptide Y receptor type 5 (hY5R), in stably transfected COS-7 cells (human) (UniProt Q15761); remark: listed apart in the source
hY4R‐eYFP (human) = hY4R‐eYFP (human) (UniProt P50391)
hY4R‐eYFP (human), sequence (P50391 whole entry): as the sequence (P50391 whole entry) above

human neuropeptide Y (NPY) receptor type 1 (hY1R), in stably transfected COS-7 cells (human), sequence (P25929 whole entry): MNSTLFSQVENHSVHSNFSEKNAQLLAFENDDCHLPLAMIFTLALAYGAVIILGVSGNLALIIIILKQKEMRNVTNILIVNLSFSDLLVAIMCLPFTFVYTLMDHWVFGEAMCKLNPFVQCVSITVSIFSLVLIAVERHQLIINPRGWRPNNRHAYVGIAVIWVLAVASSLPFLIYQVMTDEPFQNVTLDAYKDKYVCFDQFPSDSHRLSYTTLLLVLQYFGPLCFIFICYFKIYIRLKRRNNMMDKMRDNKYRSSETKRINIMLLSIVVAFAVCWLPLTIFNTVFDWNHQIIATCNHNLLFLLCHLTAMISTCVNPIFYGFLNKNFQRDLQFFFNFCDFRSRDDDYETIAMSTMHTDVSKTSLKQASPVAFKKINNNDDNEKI

Molecule: YPSK(GFL-G(13C2,15N)- COCH2-4-OHT)PDFPGEDAPA(13C3,15N)EDLARYYSALRHYINL(13C6,15N)ITRPRY-NH2
cleaved bond [1]: Y1-P2; also recorded: P2-S3; also recorded: Y21-S22; also recorded: L24-R25; also recorded: L30-I31; also recorded: R35-Y36

Molecule: CC/C(=C(\c1ccc(O)cc1)c1ccc(OCCN(C)C)cc1)c1ccccc1 [4‐OHT, 4‐hydroxytamoxifen]
EC50 (ERα [4]): 9.4 nM | EC50 (ERα [5]): 5.8 nM

Molecule: [F^7,P^34]‐pNPY (peptide)
calcium flux assay (receptor activation), EC50 [2]: 0.1 nM | calcium flux assay (receptor activation), EC50 [3]: 0.3 nM | IP1 accumulation assay (G-protein activation), EC50 [6]: 1.2 nM | IP1 accumulation assay (G-protein activation), EC50 [7]: 0.4 nM

Molecule: APLEPVYPGDNATPEQMAQYAADLRRYINMLTRPRY [human pancreatic polypeptide (hPP)]
calcium flux assay (receptor activation), EC50 [3]: 0.1 nM | arrestin-3 recruitment to the receptor (NanoBRET), EC50 (hY4R‐eYFP (human)): 3.9 nM | IP1 accumulation assay (G-protein activation), EC50 [7]: 0.2 nM

Further lines, results first:

calcium flux assay (receptor activation), EC50 [2]: 0.1 nM | calcium flux assay (receptor activation), EC50 [3]: 0.6 nM
Molecule: 4‐OHT conjugate 1 of [F^7,P^34]‐pNPY (w/o linker) (peptide)

cleaved bond [1]: R35-Y36, minor
Molecule: YPSK(COCH2-4-OHT)PDFPGEDAPAEDLK(Tam)RYYSALRHYINLITRPRY-NH2

fragment found (DPBS, pH = 7.4): peptide without 4-OHT | fragment found [8]: peptide without 4-OHT | fragment found [9]: peptide without 4-OHT | fragment found [10]: peptide without 4-OHT
Molecule: [K4(Diamine-4-OHT),F7,P34]-pNPY

calcium flux assay (receptor activation), EC50 [11]: 7.2 nM | IP1 accumulation assay (G-protein activation), EC50 [12]: 3.4 nM
Molecule: porcine neuropeptide Y (pNPY) (from UniProt P01304 10-45)
